{"source": "patent US20040005672A1", "about": "“Heterologous production of polyketides” (priority 2002, published 2004)", "molecules": {"B1": {"name": "mutase: methylmalonyl-CoA mutase (EC 5.4.99.2) from P. shermanii, expressed in E. coli (protein, UniProt P11652 2-638; P11653 2-728, looked up)", "Methylmalonyl-CoA mutase … 1": "SSTDQGTNPADTDDLTPTTLSLAGDFPKATEEQWEREVEKVLNRGRPPEKQLTFAECLKRLTVHTVDGIDIVPMYRPKDAPKKLGYPGVAPFTRGTTVRNGDMDAWDVRALHEDPDEKFTRKAILEGLERGVTSLLLRVDPDAIAPEHLDEVLSDVLLEMTKVEVFSRYDQGAAAEALVSVYERSDKPAKDLALNLGLDPIAFAALQGTEPDLTVLGDWVRRLAKFSPDSRAVTIDANIYHNAGAGDVAELAWALATGAEYVRALVEQGFTATEAFDTINFRVTATHDQFLTIARLRALREAWARIGEVFGVDEDKRGARQNAITSWRDVTREDPYVNILRGSIATFSASVGGAESITTLPFTQALGLPEDDFPLRIARNTGIVLAEEVNIGRVNDPAGGSYYVESLTRSLADAAWKEFQEVEKLGGMSKAVMTEHVTKVLDACNAERAKRLANRKQPITAVSEFPMIGARSIETKPFPAAPARKGLAWHRDSEVFEQLMDRSTSVSERPKVFLACLGTRRDFGGREGFSSPVWHIAGIDTPQVEGGTTAEIVEAFKKSGAQVADLCSSAKVYAQQGLEVAKALKAAGAKALYLSGAFKEFGDDAAEAEKLIDGRLFMGMDVVDTLSSTLDILGVAK", "Methylmalonyl-CoA mutase … 2": "STLPRFDSVDLGNAPVPADAARRFEELAAKAGTGEAWETAEQIPVGTLFNEDVYKDMDWLDTYAGIPPFVHGPYATMYAFRPWTIRQYAGFSTAKESNAFYRRNLAAGQKGLSVAFDLPTHRGYDSDNPRVAGDVGMAGVAIDSIYDMRELFAGIPLDQMSVSMTMNGAVLPILALYVVTAEEQGVKPEQLAGTIQNDILKEFMVRNTYIYPPQPSMRIISEIFAYTSANMPKWNSISISGYHMQEAGATADIEMAYTLADGVDYIRAGESVGLNVDQFAPRLSFFWGIGMNFFMEVAKLRAARMLWAKLVHQFGPKNPKSMSLRTHSQTSGWSLTAQDVYNNVVRTCIEAMAATQGHTQSLHTNSLDEAIALPTDFSARIARNTQLFLQQESGTTRVIDPWSGSAYVEELTWDLARKAWGHIQEVEKVGGMAKAIEKGIPKMRIEEAAARTQARIDSGRQPLIGVNKYRLEHEPPLDVLKVDNSTVLAEQKAKLVKLRAERDPEKVKAALDKITWAAGNPDDKDPDRNLLKLCIDAGRAMATVGEMSDALEKVFGRYTAQIRTISGVYSKEVKNTPEVEEARELVEEFEQAEGRRPRILLAKMGQDGHDRGQKVIATAYADLGFDVDVGPLFQTPEETARQAVEADVHVVGVSSLAGGHLTLVPALRKELDKLGRPDILITVGGVIPEQDFDELRKDGAVEIYTPGTVIPESAISLVKKLRASLDA"}, "B2": {"name": "Streptomyces coelicolor methylmalonyl-CoA epimerase, wild type, recombinant (gene 8F4.02c) (Streptomyces coelicolor A3(2)) (protein)", "chain": "MLTRIDHIGIACHDLDATVEFYRATYGFEVFHTEVNEEQGVREAMLKINDTSDGGASYLQLLEPTREDSAVGKWLAKNGEGVHHIAFGTADVDADAADIRDKGVRVLYDEPRRGSMGSRITFLHPKDCHGVLTELVTSAAVESPEH", "notes": "(2RS)-methylmalonyl-CoA substrate"}, "B3": {"name": "Propionibacterium shermanii methylmalonyl-CoA epimerase (EC 5.1.99.1), wild type, recombinant, GenBank AY046899 (Propionibacterium freudenreichii subsp. … (protein)", "chain": "MSNEDLFICIDHVAYACPDADEASKYYQETFGWHELHREENPEQGVVEIMMAPAAKLTEHMTQVQVMAPLNDESTVAKWLAKHNGRAGLHHMAWRVDDIDAVSATLRERGVQLLYDEPKLGTGGNRINFMHPKSGKGVLIELTQYPKN"}}, "key": {"[1]": {"experiment": "Spontaneous chemical epimerization between (R)- and (S)-mm-CoA", "type": "physicochemical", "conditions": "in 15 minutes"}, "[2]": {"experiment": "Stability of acyl-CoAs in TCA and mutase assay buffer (HPLC)", "type": "physicochemical", "conditions": "five minutes under the mutase assay conditions, 30° C", "procedure": "To test whether acyl-CoAs degrade in TCA, the following tests were conducted. The CoA mix consisted of 1.6 mM each of malonyl-, methylmalonyl-, succinyl-, acetyl-, and propionyl-CoA, plus 0.5 mM CoA. An aliquot (10 μL) of this mix was added to 100 μL 10% TCA, 50 μL were immediately injected to the HPLC for CoA analysis, and the remainder was promptly frozen on dry ice. The frozen portion was then thawed and loaded immediately to the HPLC. Again, 10 μL of the CoA mix were added to 100 μL 10% TCA, 50 μL were left on ice for 15 minutes and then injected to the HPLC, the remainder was left at 4° C. overnight and injected to the HPLC the next morning. The area under each CoA peak was noted. This same procedure was followed but using a mixture of TCA and buffer A from the mutase assay.\nThe CoA analysis described here is carried out on cells which are lysed in 10% TCA. […] Thus, the CoAs are stable in TCA and in the mutase assay buffer after the cells are lysed or after the assays are completed, and prior to HPLC analysis.\nAlthough the CoAs are stable in TCA and buffer at 4° C., they degraded at 30° C., the temperature at which the mutase assay was performed. In five minutes under the assay conditions, about 4% of the methylmalonyl-CoA hydrolyzed to CoA. […] Thus, the mutase assay is suboptimal for extremely quantitative results."}, "DEBS or DEBS1+TE": {"system": "DEBS or DEBS1+TE", "conditions": "cited from earlier work"}, "[3]": {"experiment": "Methylmalonyl-CoA mutase assay in crude cell extracts (HPLC, conversion of methylmalonyl-CoA to succinyl-CoA)", "type": "biochemical", "conditions": "cells grown without hydroxocobalamin; extracts not supplemented with B12", "procedure": "The mutase assay was performed as follows. All operations were performed in the dark or under a red safelight. The pellet from 25 mL of culture was thawed, washed in buffer C (50 mM potassium phosphate pH 7.4, 5 mM EDTA, 10% glycerol), and resuspended in 0.5 mL of buffer C containing protease inhibitors (1 tablet per 10 mL of buffer). Following sonication on ice, the extract was clarified by centrifugation at 4° C. for 10 minutes at maximum speed in an Eppendorf microfuge; the supernatent was assayed. Enzyme assays contained, in a final volume of 100 μL, 0.2 mM (2R,2S)-methylmalonyl-CoA, mutase extract, and buffer C containing protease inhibitors. Reactions for assays with vitamin B12 were as above but contained 0.01 mM vitamin B12, in which case the mutase extract was incubated with the vitamin B12 in a total volume of 75 μL for 5 minutes at 30° C. prior to initiation of reaction with methylmalonyl-CoA. After the desired length of incubation at 30° C., the reaction was stopped by the addition of 50 μL of 10% trichloroacetic acid (TCA) and placed on ice for approximately 10 minutes. […] An aliquot (100 μL) of the supernatant was injected onto the HPLC to quantify conversion of methylmalonyl-CoA to succinyl-CoA. […]\nMethylmalonyl-CoA mutase assay. […] After centrifugation, 100 μl of the supernatant was analyzed by HPLC to quantify conversion of methylmalonyl-CoA to succinyl-CoA."}, "[4]": {"substrate": "C[C@H](C(=O)O)C(=O)SCCNC(=O)CCNC(=O)[C@H](O)C(C)(C)COP(=O)(O)OP(=O)(O)OC[C@H]1O[C@@H](n2cnc3c(N)ncnc32)[C@H](O)[C@@H]1OP(=O)(O)O", "experiment": "Methylmalonyl-CoA epimerase steady state kinetics (transcarboxylase/malate dehydrogenase coupled assay, A340)", "type": "biochemical, Streptomyces coelicolor", "conditions": "other: 30° C, pH 6.9, (2RS)-methylmalonyl-CoA 27 μM to 160 μM, (2R) concentration assumed one-half of (2RS), epimerase activated with CoCl2", "procedure": "(§1) Methylmalonyl-CoA epimerase assay. Enzyme activity was assayed at 30° C. using a modification of a reported method (27). The epimerase (0.54 mg/ml) was first activated with 100 μM CoCl2 at 4° C. for 1 h. Reaction mixtures (1.5 mL) contained 0.2 M potassium phosphate buffer pH 6.9, 0.1 M NH4SO4, 5 mM Na pyruvate, 0.08 mM (2RS)-methylmalonyl-CoA, 0.05 units transcarboxylase, 0.16 mM NADH, and 2.5 units of malate dehydrogenase. The reaction was initiated with (2RS)-methylmalonyl-CoA, and the decrease in A340 concomitant with consumption of the S-isomer was allowed to stabilize. Limiting epimerase was added to catalyze conversion of the remaining R- to S-isomer, and the initial rate and total decrease in A340 were monitored. For kinetic studies, -1.2 nM epimerase was incubated with varying amounts of (2RS)-methylmalonyl-CoA (27 μM to 160 μM). The (2R)-methylmalonyl-CoA concentrations were assumed to be one-half of the concentration of (2RS)-methylmalonyl-CoA.\nS. coelicolor methylmalonyl-CoA epimerase gene. The P. shermanii methylmalonyl-CoA epimerase DNA sequence was used to search the S. coelicolor genomic database (www.sanger.ac.uk/Projects/S coelicolor) using the BLAST programs at the National Center for Biotechnology Information, NIH website (37), and S. coelicolor gene 8F4.02c was identified as a putative methylmalonyl-CoA epimerase. […]"}, "[5]": {"substrate": "C[C@H](C(=O)O)C(=O)SCCNC(=O)CCNC(=O)[C@H](O)C(C)(C)COP(=O)(O)OP(=O)(O)OC[C@H]1O[C@@H](n2cnc3c(N)ncnc32)[C@H](O)[C@@H]1OP(=O)(O)O", "experiment": "Methylmalonyl-CoA epimerase steady state kinetics (transcarboxylase/malate dehydrogenase coupled assay, A340)", "type": "biochemical, Propionibacterium freudenreichii subsp. shermanii", "conditions": "other: 30° C, pH 6.9, (2RS)-methylmalonyl-CoA 27 μM to 160 μM, (2R) concentration assumed one-half of (2RS), epimerase activated with CoCl2", "procedure": "as §1\nHeterologous expression and purification of the epimerases. E. coli BL21(DE3) harboring either pKOS143-28-8 (P. shermanii epimerase) or pKOS117-174-A37 (S. coelicolor epimerase) was grown in 750 ml LB (100 μg/ml carbenicillin) at 37° C. until late log phase, then induced with IPTG to 1 mM final concentration and grown for an additional 3 h at 30° C. The cells were collected by centrifugation, and the pellets were stored at −80° C. […]"}}, "note": "“Also recorded” adds a separate entry of the source."}
{"molecule": "CC(C(=O)O)C(=O)SCCNC(=O)CCNC(=O)[C@H](O)C(C)(C)COP(=O)(O)OP(=O)(O)OC[C@H]1O[C@@H](n2cnc3c(N)ncnc32)[C@H](O)[C@@H]1OP(=O)(O)O", "note": "(stereo partly drawn) [methylmalonyl-CoA]", "values": [{"measurement": "spontaneous chemical epimerization", "setting": "[1]", "value": "approximately 3%"}, {"measurement": "hydrolyzed to CoA", "setting": "[2]", "value": "about 4%"}]}
{"molecule": "CC(C)(COP(=O)(O)OP(=O)(O)OC[C@H]1O[C@@H](n2cnc3c(N)ncnc32)[C@H](O)[C@@H]1OP(=O)(O)O)[C@@H](O)C(=O)NCCC(=O)NCCSC(=O)CCC(=O)O", "note": "[succinyl-CoA]", "values": [{"measurement": "hydrolyzed to CoA", "setting": "[2]", "value": "comparable rate"}]}
{"molecule": "C[C@@H](C(=O)O)C(=O)SCCNC(=O)CCNC(=O)[C@H](O)C(C)(C)COP(=O)(O)OP(=O)(O)OC[C@H]1O[C@@H](n2cnc3c(N)ncnc32)[C@H](O)[C@@H]1OP(=O)(O)O", "note": "[(2S)-methylmalonyl-CoA]", "values": [{"measurement": "Km", "setting": "DEBS or DEBS1+TE", "value": "~25", "unit": "µM"}]}
{"molecule": "B1", "values": [{"measurement": "mutase activity", "setting": "[3]", "value": "no mutase activity was observed; also recorded: undetectable"}]}
{"molecule": "B2", "values": [{"measurement": "Km", "setting": "[4]", "value": 57, "unit": "µM"}, {"measurement": "kcat", "setting": "[4]", "value": 75, "unit": "s⁻¹"}]}
{"molecule": "B3", "values": [{"measurement": "Km", "setting": "[5]", "value": 38, "unit": "µM"}, {"measurement": "kcat", "setting": "[5]", "value": 150, "unit": "s⁻¹"}]}
